# Laboratory results as given in paper PMC5425256 (Developmental Cell, 2017).
# Target: recombinant GST-Pak6 (from pMW-GST-Pak6, E. coli) (human, UniProt Q9NQU5 1-681)
# Test: pull-down
# Details: both partners purified
# Chain of recombinant GST-Pak6 (from pMW-GST-Pak6, E. coli) (Q9NQU5 whole entry): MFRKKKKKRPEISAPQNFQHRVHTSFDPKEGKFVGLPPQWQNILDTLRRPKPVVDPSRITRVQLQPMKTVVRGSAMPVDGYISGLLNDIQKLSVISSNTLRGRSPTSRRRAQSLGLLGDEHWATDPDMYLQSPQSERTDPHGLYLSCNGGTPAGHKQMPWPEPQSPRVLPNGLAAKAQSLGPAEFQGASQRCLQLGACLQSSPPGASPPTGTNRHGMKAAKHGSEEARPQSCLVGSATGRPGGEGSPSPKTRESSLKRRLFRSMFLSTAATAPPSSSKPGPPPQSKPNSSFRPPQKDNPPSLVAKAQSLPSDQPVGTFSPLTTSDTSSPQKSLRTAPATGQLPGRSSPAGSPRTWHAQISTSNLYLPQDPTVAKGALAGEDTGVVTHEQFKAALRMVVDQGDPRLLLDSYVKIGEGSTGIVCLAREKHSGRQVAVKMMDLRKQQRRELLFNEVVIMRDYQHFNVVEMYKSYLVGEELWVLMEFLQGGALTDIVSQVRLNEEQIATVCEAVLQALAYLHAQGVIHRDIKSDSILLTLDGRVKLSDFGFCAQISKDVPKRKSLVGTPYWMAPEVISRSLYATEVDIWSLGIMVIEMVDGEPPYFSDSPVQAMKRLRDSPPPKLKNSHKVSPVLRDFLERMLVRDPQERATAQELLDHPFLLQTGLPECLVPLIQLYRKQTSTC
binder,measurement,value
"recombinant His-RhoD loaded with GTPγS (natural protein, mouse, UniProt P97348 1-210, looked up) MNASQVAGEEAPQSGHSVKVVLVGDGGCGKTSLMMVFAKGAFPESYSPTVFERYNATLQMKGKPVHLQIWDTAGQDDYDRLRPLFYPDANVLLLCFDVTNPNSFDNVSNRWYPEVTHFCKGVPIIVVGCKIDLRKDKVLVNNLRKKRLEPVTYHRGHDMARSVGAVAYLECSARLHDNVEAVFQEAAEVALSSRRHNFWRRITQNCCLAT",binding result,binds
